Measurements published in patent US20250282868A1 (ITEOS BELGIUM, published 2025).
Changes are numbered by the printed parent chain.

T1: mouse TREM2 (mouse, UniProt Q99NH8 19-227)
T1 construct: whole, on cells
T1 sequence (looked up): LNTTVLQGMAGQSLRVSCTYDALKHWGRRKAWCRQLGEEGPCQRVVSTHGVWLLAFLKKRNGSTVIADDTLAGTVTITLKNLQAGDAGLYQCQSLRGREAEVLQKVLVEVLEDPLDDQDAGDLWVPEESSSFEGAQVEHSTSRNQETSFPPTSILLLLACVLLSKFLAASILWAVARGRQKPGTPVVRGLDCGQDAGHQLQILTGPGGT

T2: human TREM2 (human, UniProt Q9NZC2 19-230)
T2 construct: on THP-1 WT cells and M2a-like macrophages (endogenous) and on CHO or HEK293T cells overexpressing human TREM2 with DAP12; also called hTREM2
T2 sequence: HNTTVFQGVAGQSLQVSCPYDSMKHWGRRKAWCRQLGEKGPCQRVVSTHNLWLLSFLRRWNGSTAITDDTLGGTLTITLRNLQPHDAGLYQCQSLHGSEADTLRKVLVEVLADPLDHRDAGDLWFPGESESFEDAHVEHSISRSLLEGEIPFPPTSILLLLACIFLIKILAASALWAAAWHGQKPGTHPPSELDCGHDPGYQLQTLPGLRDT

T3: cynomolgus TREM2 (cynomolgus, UniProt A0A2K5UY34 49-260)
T3 construct: also called cynoTREM2; cTREM2
T3 sequence: T2 sequence with A10E, W60R, L89F, F125V, I157V, L193P, Y201H

B1: EOS006170 (antibody, V domains shown)
VH: QVQLQESGPGLVKPSGTLSLTCAVSGGSISSSNWWSWVRQPPGKGLEWIGEIYHSGSTNYNPSLKSRVTISVDKSKNQFSLKLSSVTAADTAVYYCARDTKYQAGMDVWGQGTTVTVSS
VL: DIQMTQSPSSLSASVGDRVTITCQASQDISNYLNWYQQKPGKAPKLLIYDASNLATGVPSRFSGSGSGTDFTFTISSLQPEDIATYYCQQYVVFPTFGGGTKVEIK
B2: EOS006167 (antibody, V domains shown)
VH: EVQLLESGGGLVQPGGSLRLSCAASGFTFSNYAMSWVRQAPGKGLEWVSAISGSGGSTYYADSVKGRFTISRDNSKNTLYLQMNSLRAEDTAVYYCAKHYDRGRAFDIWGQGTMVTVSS
VL: EIVLTQSPGTLSLSPGERATLSCRASQSVSSSYLAWYQQKPGQAPRLLIYGASSRATGIPDRFSGSGSGTDFTLTISRLEPEDFAVYYCQQYDDVPYTFGGGTKVEIK
B3: EOS006168 (antibody, V domains shown)
VH: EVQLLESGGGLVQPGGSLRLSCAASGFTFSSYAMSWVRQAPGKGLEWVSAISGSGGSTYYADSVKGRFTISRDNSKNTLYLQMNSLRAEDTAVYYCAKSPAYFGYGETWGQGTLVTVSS
VL: B2 VL with Y33F, D93Y, D94S, V95P, Y97I
B4: EOS006180 (antibody, V domains shown)
VH: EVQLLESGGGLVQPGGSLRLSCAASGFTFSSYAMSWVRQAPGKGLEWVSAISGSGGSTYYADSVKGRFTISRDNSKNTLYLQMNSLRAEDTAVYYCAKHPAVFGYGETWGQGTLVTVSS
VL: B2 VL with Y33F, D93Y, D94G, V95L, Y97I
B5: EOS006166 (antibody, V domains shown)
VH: EVQLVESGGGLVQPGRSLRLSCTASGFTFGDYAMSWFRQAPGKGLEWVGFIGSKAYGGTTEYTASVKGRFTISRDGSKSIAYLQMNSLKTEDTAVYYCARGKRYSYGYWHPAFDVWGQGTMVTVSS
VL: B1 VL with S30T, A55E, V92D, V93S, F94Y, P95L
B6: EOS006173 (antibody, V domains shown)
VH: B5 VH with Y104R, S105D
VL: B1 VL with S30T, A55E, Q90E, V92D, V93Q, F94Y, P95L
notes: also called EOS061730
B7: EOS006177 (antibody, V domains shown)
VH: B1 VH with S31D, N33A, S55D, G56A, S57D, Q103W, A104G
VL: B1 VL with V93E, F94A
B8: EOS006174 (antibody, V domains shown)
VH: B5 VH with D31E, A33T, G57A, Y108G, H110V
VL: B1 VL with S30T, A55E, Q90E, V92D, V93S, F94Y, P95L, T96A
B9: EOS006164 (antibody, V domains shown)
VH: B5 VH with G30D, A33T, G57S, G58A, G107T, H110T
VL: B1 VL with S30T, A55E, Q90E, V92D, V93S, F94Y, P95I

These binders were tested against T1, mouse TREM2 (assay: MFI on CT26 cells over-expressing mouse TREM2 and DAP12; column 'Considered cross-reactive').
Description: (§1) Cross-reactivity to mouse TREM2 was assessed using CT26 cells over-expressing mouse TREM2 and DAP12 (Table 23). Eight anti-TREM2 antibodies and both benchmark antibodies were considered cross-reactive to mouse TREM2 (MFI higher than isotype control and fold change of CT26-TREM2 over the CT26 Empty Vector higher than 5). The remaining anti-TREM2 antibodies were considered as being low to not cross-reactive (fold change less than 5). EOS006171 was not tested due to clear non-cross-reactivity preliminary data by octet (data not shown).

| Binder | binding result |
| --- | --- |
| B1 | no binding (tested: fold change less than 5) |
| B2 | no binding (tested: fold change less than 5) |
| B3 | no binding (tested: fold change less than 5) |
| B4 | no binding (tested: fold change less than 5) |

These binders were tested against T2, human TREM2 (assay: flow cytometry, M2a-like macrophages, dose-response).
Description: (§2) M2a-like macrophages were produced in vitro from monocytes of healthy donors. Briefly, after PBMCs isolation from peripheral blood using Lymphoprep™ gradient, CD14+ cells were purified and seeded in presence of MCSF 50 ng/ml for 6 days. Macrophages were then cultured with IL-13 and IL-4 at a concentration of 20 ng/ml for two additional days and then used for a cell-based binding assay.
(§3) M2a-like macrophages were incubated with anti-TREM2 antibodies (dose-response curve with 11 concentrations from 10 μg/ml to 0.0001 μg/ml) for 30 min at 4° C. After washing, bound antibodies were detected with a secondary anti-human IgG Fc PE-labelled for 30 min at 4° C. Fluorescence intensity was measured by flow cytometry. Equilibrium dissociation constant (kD) was then calculated for each antibody using median MFI normalized over isotype control.

| Kd [nM] | Binder |
| --- | --- |
| 1.21 | B5 |
| 8.2 | B1 |
| 0.3 | B6 |
| 0.19 | B7 |
| 0.09 | B8 |
| 0.32 | B9 |
| 10.2 | B2 |
| 2.99 | B3 |

The binders below were run against T2, human TREM2 (assay: flow cytometry, M2a-like macrophages).
Description: as §2, §3

| Fold over isotype [fold] | Binder |
| --- | --- |
| 5.9 | B5 |
| 1.1 | B1 |
| 8.2 | B6 |
| 17.3 | B7 |
| 14.9 | B8 |
| 12.9 | B9 |
| 1.6 | B2 |
| 1.9 | B3 |

Each binder was assayed against T1, mouse TREM2 (assay: MFI on CT26 cells over-expressing mouse TREM2 and DAP12 vs CT26 empty vector).
Description: as §1

| MFI Fold change (CT26-TREM2 over CT26-EV) [fold] | Binder |
| --- | --- |
| 1 | B1 |
| 11 | B6 |
| 21.4 | B7 |
| 34.3 | B8 |
| 21.4 | B9 |
| 4.7 | B2 |
| 1.6 | B3 |
| 1.8 | B4 |

These binders were tested against T2, human TREM2 (assay: cell-based or functional assay).

| Stabilization ratio (Mean of 2 replicates) [ratio] | Binder |
| --- | --- |
| 0.49 | B5 |
| 0.57 | B1 |
| 0.41 | B6 |
| 0.44 | B7 |
| 0.46 | B8 |
| 0.55 | B9 |
| 0.82 | B2 |
| 0.8 | B3 |

What follows are binders tested against T2, human TREM2 (assay: flow cytometry, THP-1 WT cells, 10 ug/ml).
Description: (§4) In order to test specificity of selected antibodies to TREM2, binding was tested by flow cytometry on THP-1 TREM2 KO (clone, produced using CRISPR technology in house) and on THP-1 WT. Cells were incubated with selected anti-TREM2 antibodies (final concentration of 10 μg/ml) for 30 min at 4° C. After washing, bound antibodies were detected with a secondary anti-human IgG Fc PE-labelled for 30 min at 4° C. Fluorescence intensity was measured by flow cytometry.

| Fold over isotype control THP1 WT [fold] | Binder |
| --- | --- |
| 7.3 | B5 |
| 2.3 | B1 |
| 3.3 | B6 |
| 3.3 | B7 |
| 4 | B8 |
| 3.7 | B9 |
| 2.1 | B2 |
| 3 | B3 |

Each binder was assayed against T3, cynomolgus TREM2 (assay: MFI on CHO cells over-expressing cynoTREM2-DAP12 vs CHO empty vector).
Description: (§5) Cross-reactivity of anti-TREM2 antibodies to cynomolgus TREM2 (cynoTREM2) was assessed using CHO over-expressing cynoTREM2-DAP12 (Table 22). Benchmark antibodies, AB52 and PN-37012, were examined for comparison.

| MFI Fold change (CHO-cTREM2 over CHO-EV) [fold] | Binder |
| --- | --- |
| 602 | B5 |
| 42.8 | B1 |
| 329 | B6 |
| 355 | B7 |
| 323 | B8 |
| 277 | B9 |
| 128 | B2 |
| 3.3 | B3 |

What follows are binders tested against T3, cynomolgus TREM2 (assay: MFI on CHO cells over-expressing cynoTREM2-DAP12).
Description: as §5

| Binding to CHO-cTREM2 MFI [MFI] | Binder |
| --- | --- |
| 25500 | B5 |
| 1650 | B1 |
| 14000 | B6 |
| 19600 | B7 |
| 15700 | B8 |
| 14200 | B9 |
| 7220 | B2 |
| 194 | B3 |

The binders below were run against T2, human TREM2 (assay: flow cytometry, THP-1 WT vs THP-1 TREM2 KO cells, 10 ug/ml).
Description: as §4

| MFI Fold change (THP-1 WT over THP-1 TREM2 KO) [fold] | Binder |
| --- | --- |
| 1.8 | B5 |
| 3.2 | B1 |
| 3.3 | B6 |
| 6.8 | B7 |
| 5.1 | B8 |
| 4.3 | B9 |
| 2.2 | B2 |
| 2.3 | B3 |

These binders were tested against T1, mouse TREM2 (assay: MFI on CT26 cells over-expressing mouse TREM2 and DAP12).
Description: as §1

| Binding to CT26-TREM2 MFI [MFI] | Binder |
| --- | --- |
| 322 | B1 |
| 3940 | B6 |
| 8680 | B7 |
| 10100 | B8 |
| 6540 | B9 |
| 2060 | B2 |
| 655 | B3 |
| 1890 | B4 |

Each binder was assayed against T2, human TREM2 (assay: flow cytometry, competition with LDL-Alexafluor-488 on CHO cells overexpressing human TREM2/DAP12).
Description: Exemplary anti-TREM2 antibodies were tested in order to characterize their ability to enter in competition with TREM2 ligand, LDL, on CHO overexpressing human TREM2/DAP12. Antibodies (dose response curves from 66.65 nM to 0.07 nM) were incubated for 30 min with cells in a soluble fashion, followed by an incubation with LDL coupled with Alexafluor-488 (at 1 μg/mL final) for 30 min. Finally, after 2 washes, cells were acquired on flow cytometer. The median MFI of Alexafluor-488 was used to plot the graphs. Benchmark antibody MOR044746 was used as positive control.

| IC50 [nM] | Binder |
| --- | --- |
| 0.865 | B5 |
| 0.145 | B6 |
| 0.195 | B7 |
| 0.3 | B8 |
| 0.265 | B9 |

Target: T2, human TREM2
Test: cell-based or functional assay
Remark: another data set of the same source

| Fold over isotype control at 66 nM [fold] | pSYK/TotSYK EC50 (nM) | Binder |
| --- | --- | --- |
| 1.75 |  | B5 |
| 1.31 |  | B1 |
| 1.34 | 1.08 | B6 |
| 0.95 |  | B7 |
| 0.897 |  | B8 |
| 1.16 |  | B9 |
| 1.57 | 49.9 | B2 |
| 1.99 | 96 | B3 |
